The target in test [1] is human monoclonal antibody (HMAb) 1C19, IgG (human). Kind of test: BLI. A general note: In BLI a coated tip is dipped into the sample, and binding shifts an interference pattern.
For test [2], the target named is DENV1 PVP159 strain recombinant E protein ectodomain (residues 1-394) (dengue virus serotype 1, strain PVP159). Kind of test: dynamic light scattering; recombinant E proteins in 20 mM Tris pH 8.0, 200 mM NaCl, 0.025% Tween-20.
Test [3] concerns the target DENV1 WestPac74 strain recombinant E protein ectodomain (residues 1-394) (dengue virus serotype 1, strain WestPac 74). The test is described as above.
The target of test [4] is DENV2 NGC strain recombinant E protein ectodomain (residues 1-394) (dengue virus serotype 2, strain NGC). The description is as above.
The target in test [5] is DENV2 PVP94/07 strain recombinant E protein ectodomain (residues 1-394) (dengue virus serotype 2, strain PVP94/07). The test is described as above.
For test [6], the target named is E protein on DENV1 strain WestPac 74 virus particles (dengue virus serotype 1, strain WestPac 74). Kind of test: cryo-EM structure.

Sequence of human monoclonal antibody (HMAb) 1C19, IgG (human) (heavy, as listed by the source, chain 1 of 2): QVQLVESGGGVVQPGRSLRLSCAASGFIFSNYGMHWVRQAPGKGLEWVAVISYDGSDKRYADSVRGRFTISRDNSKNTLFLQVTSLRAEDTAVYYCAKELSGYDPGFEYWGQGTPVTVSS
Sequence of human monoclonal antibody (HMAb) 1C19, IgG (human) (light, as listed by the source, chain 2 of 2): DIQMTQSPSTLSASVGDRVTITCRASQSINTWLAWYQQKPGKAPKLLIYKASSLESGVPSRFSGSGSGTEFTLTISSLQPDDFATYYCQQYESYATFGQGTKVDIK

As usually defined, the Kd is the constant that tells how readily two partners part at equilibrium. Low values mean a tighter complex, high ones a looser complex. The stoichiometry N is a count of units in the complex or per binding partner. In test [1], “DENV1 PVP159 strain recombinant E protein ectodomain (residues 1-394) (domain or fragment)” gave an equilibrium dissociation constant (Kd) of 0.712 nM. For the same substance, the stoichiometry N in test [2] stood at 2. With “DENV1 WestPac74 strain recombinant E protein ectodomain (residues 1-394) (domain or fragment)”, the stoichiometry N in test [3] was found to be 2. With “DENV2 NGC strain recombinant E protein ectodomain (residues 1-394) (domain or fragment)”, the stoichiometry N in test [4] came to 2.

On to “DENV2 PVP94/07 strain recombinant E protein ectodomain (residues 1-394) (domain or fragment)”, for which the stoichiometry N in test [5] came out at 2. In test [6], Fab 1C19 registered a copies of Fab bound per virus particle (180 E proteins), Class I of 60 copies and a copies of Fab bound per virus particle (180 E proteins), Class II of 60 copies.

Source of the values: publication PMC7935256.
